Patent publication US12559863B2, “Macrocyclic modulators of disease associated protein misfolding and aggregation” (RESQ BIOTECH, priority 2017, dated 2026)

Columns and labels:
SOD1(A4V) [1] = molecular target: T1, SOD1(A4V) (Homo sapiens, UniProt P00441, A5V); experiment: Dynamic light scattering of SOD1(A4V) with cyclic peptide; assay type: biochemical; settings: room temperature, 60 d
T1 construct: polyHis; made in house; host or cells: E. coli Origami 2(DE3)
Description: (§1) SOD1 or mutants thereof were overexpressed from the appropriate pET-SOD1 or PASK-SOD1 vectors in E. coli Origami 2(DE3) cells in LB medium containing 50 μg/mL kanamycin (for pET-SOD1) or 100 μg/mL ampicillin (for pASK-SOD1), 200 μM CuCl2, and 200 μM ZnCl2 by the addition of 0.01 mM IPTG (for pET-SOD1) or 0.2 μg/mL anhydrotetracycline (aTc) (for pASK-SOD1), either at 37° C. for 2-3 h or at 18° C. for about 16 h. Origami 2(DE3) cells were utilized in order to provide an oxidizing cytoplasmic environment in order to promote correct formation of disulfide bonds, which are required for proper SOD1 folding and function. Under these conditions, bacterially produced SOD1 is produced in dimeric and enzymatically active form, while it simultaneously co-exists with misfolded, soluble and insoluble SOD1 oligomeric/aggregated species (FIG. 3C). Thus, the acquired protein is found in a state that resembles the conditions encountered in human cells under stressful or pathogenic conditions. The appearance of misfolded SOD1 oligomers/aggregates is enhanced with increasing incubation temperatures. […]
The sizes of the SOD1 particles were measured using a Zetasizer NanoZS90 (Malvern) instrument. […]

Aβ42 = molecular target: T2, Aβ42 (Homo sapiens, UniProt P05067); experiment: Thioflavin T dye-binding assay of Aβ42; assay type: biochemical; settings: 30-d aged CD solutions
T2 construct: one of the secondary products yields a 42-amino-acid-long peptide (Aβ42); purchased Eurogentec, Belgium; host or cells: chemical synthesis
Description: For Aβ ThT staining, 100 μL of the 30-d aged 50 μM CD solutions were diluted in PBS (10 mM, pH 7.33) to form a 25 μM Aβ solution with 200 μL final volume. 2.5 μL from a stock solution of ThT (Sigma-Aldrich, USA) in PBS (10 mM, pH 7.33) was added to the prepared Aβ solutions to achieve a final ThT concentration of 5 μM. The mixture was agitated adequately by pipetting and immediately thereafter, fluorescence was monitored with excitation at 440 nm (EM slit=2.5 nm, PMT Voltage 700 V, response 0.4 s) using a HITACHI F-2500 (Japan) spectrofluorometer.

SOD1(A4V) [2] = molecular target: T1, SOD1(A4V); experiment: Filter retardation assay of SOD1(A4V); assay type: biochemical; settings: 25 d at 37° C.
Description: as §1

[3] = system: HEK293 cells transiently expressing SOD1(A4V)-GFP; experiment: SOD1 aggregation and viability measurements in HEK293 cells; assay type: cell-based, human; settings: 5 μM SOD1C5-4; compared to untreated cells
Description: Human embryonic kidney (HEK) 293 cells were transfected using a Nucleofector (Amaxa) following the manufacturer's protocol. 6 ug DNA (SOD1 or SOD1(A4V) cloned into the pEGFP-N3 plasmid vector) were used per 2×10^6 cells and 5 μM synthetic SOD1C5-4 was added, where appropriate, before plating. Transfected cells were sorted 18 h later on a FACSAria to isolate GFP-positive clones. […] Collected cells were plated onto a 24-well plate at a density of 50,000 cells/well. Microscopy analysis was performed under an inverted microscope on day 1 and day 5 in culture after sorting. Cell counts are the average number of viable GFP-fluorescing cells of two areas per triplicate of wells of 24-well plates (magnification 20×). Cell counts are presented as percentage of viability of SOD1-overxoressing cell. As aggregate-positive cells are counted the fluorescing inclusion body-positive cells. Again, two areas per triplicate of wells of 24-well plate are averaged (magnification 20×). Aggregate-positive cells are presented as percentage of the total viable GFP-fluorescing cells.

SOD1(A4V) [4] = molecular target: T1, SOD1(A4V); experiment: Differential scanning fluorimetry of SOD1(A4V) with SYPRO Orange; assay type: biochemical; settings: 5:1 peptide to protein ratio
Description: FIGS. 4A-4F: (A) Chemical structure of the selected cyclic pentapeptide SOD1C5-4. (B) Circular dichroism spectra of SOD1(A4V) incubated with/without the selected cyclic pentapeptides SOD1C5-4, AβC5-34 or AβC5-116 at room temperature for 90 d (1:1 and 5:1 indicate cyclic peptide:SOD1(A4V) molar ratios). Representative spectra from n=2 independent experiments are presented. (C) Dynamic light scattering analysis of SOD1(A4V) incubated with/without the selected cyclic pentapeptides at room temperature for 60 d. Representative data from n=2 independent experiments are presented. (D) Thioflavin T (ThT) fluorescence of SOD1(A4V) incubated with/without the selected cyclic pentapeptides at room temperature for 90 d. Representative data from n=2 independent experiments are presented. (E) Filter retardation assay of SOD1(A4V) incubated with/without the selected cyclic pentapeptides at 37° C. for 25 d. Representative images from n=2 independent experiments performed in replica duplicates are presented. (F) Differential scanning fluorimetry analysis of isolated SOD1(A4V) in the presence or absence of the selected cyclic pentapeptide SOD1C5-4 (5:1 peptide to protein ratio) using the conformation-sensitive dye SYPRO Orange. Data corresponding to n=2 independent experiments each one performed in three replicates±s.e.m. are presented.

T1 sequence (P00441 whole entry A5V): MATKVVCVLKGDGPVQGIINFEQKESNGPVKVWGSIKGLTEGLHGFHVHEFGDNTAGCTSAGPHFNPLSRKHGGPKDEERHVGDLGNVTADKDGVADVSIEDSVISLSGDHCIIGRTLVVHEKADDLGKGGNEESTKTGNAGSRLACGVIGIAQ

cyclo-TWSVW (cyclic) [SOD1C5-4]
size of oligomeric/aggregated SOD1(A4V) species (DLS) (SOD1(A4V) [1]): markedly smaller sizes | extent of Aβ42 amyloid fibril formation (ThT) (Aβ42): did not have any effect | formation of large, amyloid-like SOD1(A4V) aggregates by filter retardation assay (SOD1(A4V) [2]): dramatically decreased | fluorescence of HEK293 cells expressing SOD1(A4V)-GFP [3]: higher fluorescence | inclusions comprising aggregated SOD1(A4V)-GFP [3]: fewer inclusions comprising aggregated SOD1(A4V)-GFP | viability of HEK293 cells expressing SOD1(A4V)-GFP [3]: higher viability | propensity of SOD1(A4V) to expose hydrophobic surfaces (SYPRO Orange, heat-induced denaturation) (SOD1(A4V) [4]): decrease the propensity of SOD1(A4V) to expose hydrophobic surfaces
